Each block holds one molecule with its values, some of them ahead of it.
Experiments:
[1] = molecular target: 人TPO受体(MPL)，表达于Ba/F3细胞 (human) (UniProt P40238); experiment: cell-based or functional assay
[2] = molecular target: 人TPO受体(MPL)，表达于Ba/F3细胞 (human) (UniProt P40238); experiment: cell-based or functional assay; remark: listed apart in the source

- ED50，BaF/mpl细胞增殖(WST-8) [1]: 0.027 nM
Molecule: 人TPO(R&D Systems) (from UniProt P40225 22-353) (ligand)

- ED50，TPO样激动剂活性(BaF/mpl细胞增殖，WST-8) [2]: 29 nM
B1: 抗体12B5(IgG) (antibody, from another filing)
scFv: QVQLVQSGGGLVRPGGSLSLSCAVSGITLRTYGMHWVRQAPGKGLEWVAGISFDGRSEYYADSVQGRFTISRDSSKNTLYLQMNSLRAEDTAVYYCARGAHYGFDIWGQGTMVTVSSGGGGTGGGGSGGGGSDIQMTQSPSTLSASIGDRVTITCRASEGIYHWLAWYQQKPGKAPKLLIYKASSLASGAPSRFSGSGSGTDFTLTISSLQPDDFATYYCQQYSNYPLTFGGGTKLEIK
